According to the supplement of paper PMC10065799, “High-throughput profiling of sequence recognition by tyrosine kinases and SH2 domains using bacterial peptide display” (eLife, 2023):

Key:
SHP2-C SH2 = test: SH2 binding enrichment of the phosphorylated peptide, bacterial display (enrichment ratio); higher = better substrate or ligand; peptides without Tyr show the background
c-Src SH2 = test: as above
Grb2 SH2 = Grb2 SH2 (UniProt P62993); test: as above
Jak2 = Jak2 (UniProt O60674); test: phosphorylation enrichment, bacterial display (enrichment ratio); higher = better substrate or ligand; peptides without Tyr show the background
Chain of Jak2 (O60674 whole entry, looked up): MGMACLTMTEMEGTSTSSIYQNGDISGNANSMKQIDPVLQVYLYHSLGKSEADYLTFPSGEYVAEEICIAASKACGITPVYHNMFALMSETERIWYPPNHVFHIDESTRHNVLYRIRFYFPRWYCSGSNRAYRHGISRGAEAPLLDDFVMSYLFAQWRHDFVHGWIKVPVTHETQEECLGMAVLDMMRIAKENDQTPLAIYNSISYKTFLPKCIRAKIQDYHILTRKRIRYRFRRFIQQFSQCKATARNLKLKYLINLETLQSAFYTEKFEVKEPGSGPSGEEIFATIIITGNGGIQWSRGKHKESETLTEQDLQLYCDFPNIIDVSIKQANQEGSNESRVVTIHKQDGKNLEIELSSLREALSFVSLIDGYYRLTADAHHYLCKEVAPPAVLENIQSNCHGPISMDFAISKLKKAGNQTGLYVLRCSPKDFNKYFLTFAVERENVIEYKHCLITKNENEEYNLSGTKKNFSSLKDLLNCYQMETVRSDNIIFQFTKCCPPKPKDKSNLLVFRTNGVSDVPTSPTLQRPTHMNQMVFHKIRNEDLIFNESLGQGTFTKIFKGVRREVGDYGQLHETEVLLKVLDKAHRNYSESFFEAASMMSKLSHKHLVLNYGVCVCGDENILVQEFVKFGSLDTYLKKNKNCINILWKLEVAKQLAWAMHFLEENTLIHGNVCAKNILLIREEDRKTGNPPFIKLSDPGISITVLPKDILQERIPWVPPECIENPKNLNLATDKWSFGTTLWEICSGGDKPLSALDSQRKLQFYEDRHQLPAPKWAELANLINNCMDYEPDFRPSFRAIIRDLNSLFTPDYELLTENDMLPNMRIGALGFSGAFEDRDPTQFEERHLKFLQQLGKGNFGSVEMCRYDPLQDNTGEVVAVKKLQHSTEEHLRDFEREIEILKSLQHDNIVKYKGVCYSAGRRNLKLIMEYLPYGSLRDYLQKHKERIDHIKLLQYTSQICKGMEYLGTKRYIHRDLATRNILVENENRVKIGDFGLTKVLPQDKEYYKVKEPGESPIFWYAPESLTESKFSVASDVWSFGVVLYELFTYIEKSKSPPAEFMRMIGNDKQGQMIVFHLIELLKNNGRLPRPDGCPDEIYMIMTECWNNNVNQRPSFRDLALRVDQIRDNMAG

EPHB2 = EPHB2 (UniProt P29323); test: as above
FGFR1 = FGFR1 (UniProt P11362); test: as above
Chain of FGFR1 (P11362 whole entry, looked up): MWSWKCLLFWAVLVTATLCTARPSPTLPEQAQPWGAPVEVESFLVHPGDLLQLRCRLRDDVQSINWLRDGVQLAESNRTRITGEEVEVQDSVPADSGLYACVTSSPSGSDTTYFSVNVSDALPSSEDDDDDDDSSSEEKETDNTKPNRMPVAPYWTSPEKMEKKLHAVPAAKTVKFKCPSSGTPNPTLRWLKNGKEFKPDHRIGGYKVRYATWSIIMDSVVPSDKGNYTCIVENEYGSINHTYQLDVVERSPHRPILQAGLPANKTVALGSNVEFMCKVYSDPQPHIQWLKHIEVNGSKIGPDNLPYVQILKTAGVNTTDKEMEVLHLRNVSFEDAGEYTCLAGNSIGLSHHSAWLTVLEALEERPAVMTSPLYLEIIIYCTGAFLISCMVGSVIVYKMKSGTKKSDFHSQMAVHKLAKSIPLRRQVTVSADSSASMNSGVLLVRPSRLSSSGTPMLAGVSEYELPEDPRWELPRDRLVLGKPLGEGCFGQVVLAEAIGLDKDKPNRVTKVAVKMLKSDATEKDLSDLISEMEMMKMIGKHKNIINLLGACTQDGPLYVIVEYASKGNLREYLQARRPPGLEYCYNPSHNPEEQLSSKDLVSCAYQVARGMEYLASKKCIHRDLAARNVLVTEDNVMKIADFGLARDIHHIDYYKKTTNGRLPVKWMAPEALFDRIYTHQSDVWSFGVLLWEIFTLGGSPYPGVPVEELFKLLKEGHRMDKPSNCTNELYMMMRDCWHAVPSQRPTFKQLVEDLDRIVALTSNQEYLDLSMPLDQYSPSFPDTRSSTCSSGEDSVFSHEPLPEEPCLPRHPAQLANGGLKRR

c-Src = test: as above
Hck = Hck (UniProt P08631); test: as above
Fyn = Fyn (UniProt P06241); test: as above
MERTK = MERTK (UniProt Q12866); test: as above
Chain of MERTK (Q12866 whole entry, looked up): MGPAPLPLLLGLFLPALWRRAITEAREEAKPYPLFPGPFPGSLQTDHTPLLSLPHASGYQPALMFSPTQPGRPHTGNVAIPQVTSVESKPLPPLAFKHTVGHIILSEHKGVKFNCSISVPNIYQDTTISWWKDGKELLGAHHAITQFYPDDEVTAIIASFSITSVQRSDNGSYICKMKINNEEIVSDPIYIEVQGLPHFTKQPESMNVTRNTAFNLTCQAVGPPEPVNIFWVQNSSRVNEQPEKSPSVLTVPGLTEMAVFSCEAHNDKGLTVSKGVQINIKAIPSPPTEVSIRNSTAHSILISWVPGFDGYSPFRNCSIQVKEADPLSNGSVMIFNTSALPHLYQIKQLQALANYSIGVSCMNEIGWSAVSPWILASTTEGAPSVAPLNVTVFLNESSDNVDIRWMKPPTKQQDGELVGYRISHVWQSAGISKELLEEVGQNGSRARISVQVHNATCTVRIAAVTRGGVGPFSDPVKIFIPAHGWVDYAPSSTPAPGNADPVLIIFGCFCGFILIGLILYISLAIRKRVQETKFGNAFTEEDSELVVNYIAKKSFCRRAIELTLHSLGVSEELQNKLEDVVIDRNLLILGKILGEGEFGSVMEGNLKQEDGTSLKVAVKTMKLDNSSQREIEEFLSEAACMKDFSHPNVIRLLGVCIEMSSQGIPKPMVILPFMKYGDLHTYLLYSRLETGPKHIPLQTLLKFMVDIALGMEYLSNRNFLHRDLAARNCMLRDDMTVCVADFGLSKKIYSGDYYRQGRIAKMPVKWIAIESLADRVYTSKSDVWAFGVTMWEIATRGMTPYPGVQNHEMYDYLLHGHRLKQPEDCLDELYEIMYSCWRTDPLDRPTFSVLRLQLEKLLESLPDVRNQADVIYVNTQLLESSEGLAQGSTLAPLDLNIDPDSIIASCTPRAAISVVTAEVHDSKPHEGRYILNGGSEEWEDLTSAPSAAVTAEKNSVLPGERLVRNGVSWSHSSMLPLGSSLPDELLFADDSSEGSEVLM

AncSZ = test: as above
Fer (mouse) = test: as above
EPHB1 = EPHB1 (UniProt P54762); test: as above
Chain of EPHB1 (P54762 whole entry, looked up): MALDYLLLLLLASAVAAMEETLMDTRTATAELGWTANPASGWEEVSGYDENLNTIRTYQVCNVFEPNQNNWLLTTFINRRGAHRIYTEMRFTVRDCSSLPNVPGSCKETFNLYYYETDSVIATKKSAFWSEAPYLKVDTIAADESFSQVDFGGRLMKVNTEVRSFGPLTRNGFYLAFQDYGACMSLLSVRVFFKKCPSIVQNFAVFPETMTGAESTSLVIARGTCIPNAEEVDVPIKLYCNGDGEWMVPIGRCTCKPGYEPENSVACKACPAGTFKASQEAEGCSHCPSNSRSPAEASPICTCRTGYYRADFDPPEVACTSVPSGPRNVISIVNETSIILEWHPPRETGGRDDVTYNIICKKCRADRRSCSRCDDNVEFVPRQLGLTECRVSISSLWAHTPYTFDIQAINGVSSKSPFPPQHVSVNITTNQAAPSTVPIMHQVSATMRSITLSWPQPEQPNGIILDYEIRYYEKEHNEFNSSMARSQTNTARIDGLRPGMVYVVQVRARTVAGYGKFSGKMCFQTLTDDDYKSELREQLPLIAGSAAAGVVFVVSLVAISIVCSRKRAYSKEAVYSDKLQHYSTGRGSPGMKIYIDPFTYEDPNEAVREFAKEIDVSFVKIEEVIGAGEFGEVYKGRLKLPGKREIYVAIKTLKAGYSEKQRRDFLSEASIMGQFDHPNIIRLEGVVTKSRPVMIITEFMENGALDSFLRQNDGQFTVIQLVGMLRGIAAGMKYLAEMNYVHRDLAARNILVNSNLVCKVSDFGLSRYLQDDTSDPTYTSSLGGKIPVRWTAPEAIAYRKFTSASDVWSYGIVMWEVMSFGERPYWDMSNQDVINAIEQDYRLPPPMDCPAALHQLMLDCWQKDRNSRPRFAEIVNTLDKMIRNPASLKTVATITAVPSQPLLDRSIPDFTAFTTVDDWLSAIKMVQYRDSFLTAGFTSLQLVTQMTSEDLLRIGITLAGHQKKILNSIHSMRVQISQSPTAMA

c-Abl (mouse) = test: as above
FGFR3 = FGFR3 (UniProt P22607); test: as above
Fes = Fes (UniProt P07332); test: as above
Chain of Fes (P07332 whole entry, looked up, the tested form may be a part): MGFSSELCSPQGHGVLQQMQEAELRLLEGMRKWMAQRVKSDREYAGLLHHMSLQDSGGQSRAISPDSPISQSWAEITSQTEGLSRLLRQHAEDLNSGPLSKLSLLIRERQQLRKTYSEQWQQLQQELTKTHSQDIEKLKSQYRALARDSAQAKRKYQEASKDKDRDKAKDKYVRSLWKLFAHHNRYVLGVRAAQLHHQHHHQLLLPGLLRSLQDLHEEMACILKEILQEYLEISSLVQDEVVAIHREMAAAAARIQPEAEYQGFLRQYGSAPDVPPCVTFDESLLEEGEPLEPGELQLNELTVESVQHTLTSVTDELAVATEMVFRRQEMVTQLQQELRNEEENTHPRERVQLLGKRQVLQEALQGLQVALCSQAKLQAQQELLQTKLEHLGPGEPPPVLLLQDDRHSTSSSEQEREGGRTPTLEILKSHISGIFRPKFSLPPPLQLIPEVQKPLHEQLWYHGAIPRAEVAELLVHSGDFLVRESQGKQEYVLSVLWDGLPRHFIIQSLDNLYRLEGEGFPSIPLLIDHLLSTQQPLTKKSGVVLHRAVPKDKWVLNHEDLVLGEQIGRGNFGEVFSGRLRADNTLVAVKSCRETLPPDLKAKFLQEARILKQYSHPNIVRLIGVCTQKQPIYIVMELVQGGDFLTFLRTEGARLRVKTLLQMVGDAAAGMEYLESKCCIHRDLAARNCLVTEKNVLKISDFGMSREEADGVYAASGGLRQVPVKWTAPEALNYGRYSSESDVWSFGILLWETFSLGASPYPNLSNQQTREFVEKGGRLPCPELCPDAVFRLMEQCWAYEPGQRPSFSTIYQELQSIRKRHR
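For SH2 binding enrichment of the phosphorylated peptide, bacterial display in this document: peptide library displayed on the E. coli surface as eCPX fusions, selected cells deep-sequenced, score is each peptide's frequency after selection divided by its frequency in the input.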
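For phosphorylation enrichment, bacterial display in this document: 11-residue human phosphosite peptides and single-mutation variants displayed on the E. coli surface, counted by deep sequencing, each peptide's frequency after selection divided by its frequency in the unselected input library; frequency after pTyr selection over input frequency; kinase dosed for 20-30% of maximal phosphorylation in three min.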

Chain of Grb2 SH2 (P62993 whole entry, looked up): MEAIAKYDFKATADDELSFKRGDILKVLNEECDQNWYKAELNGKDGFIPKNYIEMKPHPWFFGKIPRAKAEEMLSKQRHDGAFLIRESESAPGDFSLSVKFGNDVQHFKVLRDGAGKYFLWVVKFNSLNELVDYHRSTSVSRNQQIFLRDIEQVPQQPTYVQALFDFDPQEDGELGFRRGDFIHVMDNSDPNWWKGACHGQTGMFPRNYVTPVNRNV

| Sequence | SH2 binding enrichment (SHP2-C SH2) | SH2 binding enrichment (c-Src SH2) | SH2 binding enrichment (Grb2 SH2) | phosphorylation enrichment (Jak2) | phosphorylation enrichment (EPHB2) | phosphorylation enrichment (FGFR1) | phosphorylation enrichment (c-Src) | phosphorylation enrichment (Hck) | phosphorylation enrichment (Fyn) | phosphorylation enrichment (MERTK) | phosphorylation enrichment (AncSZ) | phosphorylation enrichment (Fer (mouse)) | phosphorylation enrichment (EPHB1) | phosphorylation enrichment (c-Abl (mouse)) | phosphorylation enrichment (FGFR3) | phosphorylation enrichment (Fes) |
| --- | --- | --- | --- | --- | --- | --- | --- | --- | --- | --- | --- | --- | --- | --- | --- | --- |
| SHNELYFEAAE [VANGL1_Y344_E347A_YF] | 0.614 | 0.544 | 0.763 | 0.781 | 0.733 | 1.13 | 0.522 | 0.656 | 0.591 | 0.543 | 1.11 | 0.476 | 0.509 | 0.624 | 1.1 | 1.04 |
| SHNKYYMLVAH [MFSD8_Y134_R139H] | 30 | 2.35 | 1.69 | 1.32 | 0.651 | 6.21 | 0.418 | 0.533 | 0.418 | 3.19 | 0.821 | 1.09 | 1.06 | 0.574 | 4.22 | 0.757 |
| SIKDKHVTALY [KCNH2_Y611_Y611H] | 0.572 | 0.497 | 0.899 | 0.43 | 0.405 | 0.408 | 0.44 | 0.397 | 0.409 | 0.345 | 0.587 | 0.388 | 0.387 | 0.529 | 0.405 | 0.61 |
| SISLKYEGRVF [ABL1_Y167_R166K_YF] | 0.987 | 0.489 | 0.86 | 1.13 | 0.609 | 0.482 | 0.398 | 0.553 | 0.477 | 0.382 | 1.05 | 0.565 | 0.655 | 0.661 | 0.771 | 1.31 |
| SIYKDYYRYNF [PLA2G2D_Y85] | 1.92 | 0.908 | 0.983 | 8.28 | 5.61 | 13.6 | 4.42 | 3.09 | 4.34 | 5.06 | 1.39 | 1.32 | 5.65 | 5.64 | 11.1 | 0.918 |
| SLHPGYNFRFA [P2RX7_Y291_Y288H_YF] | 0.61 | 0.703 | 0.89 | 0.765 | 0.417 | 0.364 | 0.385 | 0.432 | 0.378 | 0.394 | 0.852 | 0.434 | 0.573 | 0.57 | 0.524 | 0.904 |
| SLIDMYSEVPD [OPA1_Y268_L272P] | 0.7 | 0.545 | 0.675 | 1.24 | 0.679 | 0.892 | 0.747 | 0.594 | 0.595 | 0.604 | 1.27 | 0.422 | 0.48 | 0.619 | 0.895 | 1.03 |
| SLLKDYSPQLQ [OTC_Y345_T343K] | 0.604 | 0.463 | 0.884 | 0.624 | 0.525 | 0.495 | 0.469 | 0.504 | 0.6 | 0.443 | 0.703 | 0.489 | 0.554 | 0.59 | 0.999 | 0.806 |
| SLLVVYPWTQR [HBB_Y36_R31S] | 1.5 | 1.14 | 1.88 | 0.804 | 0.544 | 0.438 | 0.36 | 0.395 | 0.516 | 0.374 | 1.05 | 0.398 | 0.462 | 0.602 | 0.513 | 1.01 |
| SLMGCYNLTFM [HS6ST3_Y323_V320M] | 0.542 | 0.459 | 0.823 | 1.61 | 0.655 | 0.546 | 0.955 | 0.724 | 0.592 | 0.56 | 1.46 | 1.35 | 0.65 | 1.14 | 1.02 | 1.63 |
| SLNEEYTKNKT [MSH2_Y563] | 0.663 | 0.621 | 0.988 | 0.593 | 0.354 | 0.324 | 0.426 | 0.37 | 0.325 | 0.348 | 0.716 | 0.379 | 0.369 | 0.537 | 0.397 | 0.786 |
| SNFRAYATEPH [TNNI3_Y29_YF] | 0.671 | 0.497 | 0.717 | 0.526 | 0.463 | 0.53 | 0.486 | 0.441 | 0.473 | 0.378 | 0.647 | 0.366 | 0.399 | 0.64 | 0.462 | 0.664 |
| SNKLFYQLEQE [PDPR_Y110_YF] | 0.649 | 0.651 | 0.869 | 1.3 | 0.738 | 0.588 | 1.91 | 0.641 | 1.45 | 0.508 | 1.25 | 0.583 | 0.628 | 0.791 | 0.692 | 1.39 |
| SNMPSYSGHFT [GRIN2A_Y1224_T1223S] | 0.631 | 0.548 | 0.79 | 0.614 | 0.408 | 0.328 | 0.463 | 0.425 | 0.465 | 0.411 | 0.476 | 1.6 | 0.417 | 0.444 | 0.421 | 0.599 |
| SRDDFYETIAM [NPY1R_Y347_D346Y_YF] | 0.73 | 0.916 | 0.947 | 1.23 | 0.68 | 0.5 | 1.06 | 2.04 | 1.44 | 0.826 | 1.3 | 7.71 | 1.02 | 0.773 | 0.871 | 1.21 |
| SRDPFYEMLAA [CYTH1_Y382] | 0.748 | 2.44 | 0.957 | 0.729 | 1.71 | 5.1 | 2.96 | 4.88 | 2.55 | 7.89 | 1.21 | 12.4 | 3.5 | 0.681 | 3.2 | 1.26 |
| SRNKPYISWPS [CDC42BPB_Y1638] | 1.51 | 1.32 | 1.61 | 0.977 | 0.395 | 0.469 | 0.483 | 0.485 | 0.436 | 0.441 | 0.583 | 0.345 | 0.417 | 0.477 | 0.511 | 0.612 |
| SSDPDYRAAVD [GLB1_Y154_L155R] | 0.668 | 0.627 | 0.78 | 0.793 | 0.589 | 0.556 | 0.409 | 0.527 | 0.449 | 0.471 | 0.926 | 0.507 | 0.508 | 0.669 | 0.635 | 0.988 |
| SSQHRYSTPHA [RAF1_Y232] | 0.898 | 2.11 | 0.714 | 0.403 | 0.354 | 0.364 | 0.433 | 0.293 | 0.357 | 0.437 | 0.682 | 0.365 | 0.479 | 0.387 | 0.344 | 0.53 |
| SSSGGYGGGFG [KRT19_Y61_A60G_YF] | 0.481 | 0.375 | 1.09 | 0.499 | 0.346 | 0.32 | 0.356 | 0.35 | 0.355 | 0.398 | 0.48 | 0.358 | 0.341 | 0.512 | 0.477 | 0.593 |
| SSTASYFKAPG [RFX2_Y108_E110K] | 0.885 | 0.608 | 0.891 | 0.53 | 0.394 | 0.548 | 0.394 | 0.431 | 0.4 | 0.415 | 0.598 | 0.339 | 0.471 | 0.418 | 0.474 | 0.619 |
| SSVKLYRVYCD [FGB_Y266_P265L] | 0.818 | 0.606 | 0.893 | 0.955 | 0.634 | 0.459 | 0.525 | 0.603 | 0.479 | 0.459 | 1.06 | 0.531 | 0.618 | 0.718 | 0.728 | 1.22 |
| STSYDYCRVPM [BST2_Y8] | 0.937 | 1.54 | 0.858 | 2.55 | 10.3 | 7.46 | 1.13 | 2.22 | 0.711 | 3.24 | 3.77 | 4.37 | 11.7 | 1.11 | 5.34 | 0.892 |
| STTSDYQWDVS [MTDH_Y364] | 0.612 | 0.449 | 0.921 | 1.05 | 0.615 | 0.659 | 0.407 | 0.508 | 0.54 | 0.387 | 1.23 | 0.476 | 0.741 | 0.782 | 0.865 | 1.22 |
| SVDRDYVLKSA [HTATIP2_Y111_R106S] | 0.927 | 0.387 | 0.74 | 0.571 | 0.403 | 0.487 | 0.426 | 0.399 | 0.439 | 0.4 | 0.66 | 0.403 | 0.546 | 0.699 | 0.54 | 0.755 |
| SVTCTFSPALN [TP53_Y126_Y126F] | 0.494 | 0.473 | 0.627 | 1.74 | 0.675 | 0.602 | 0.541 | 0.621 | 0.562 | 0.515 | 2.01 | 0.673 | 0.845 | 1.19 | 1.03 | 1.89 |
| SVTCTSSPALN [TP53_Y126_Y126S] | 0.603 | 0.482 | 0.767 | 1.18 | 0.675 | 0.476 | 0.47 | 0.526 | 0.562 | 0.436 | 1.3 | 0.538 | 0.626 | 0.856 | 0.863 | 1.34 |
| SVTCTYSPAIN [TP53_Y126_L130I] | 0.5 | 0.435 | 0.817 | 1.37 | 0.735 | 0.702 | 0.684 | 0.749 | 0.615 | 0.466 | 1.5 | 0.743 | 1 | 1.08 | 1.1 | 1.83 |
| SVTCTYSPALI [TP53_Y126_N131I] | 0.663 | 0.349 | 0.659 | 1.52 | 0.779 | 0.534 | 0.817 | 0.804 | 0.646 | 0.602 | 1.64 | 1.09 | 0.906 | 1.13 | 0.954 | 1.8 |
